One molecule from patent publication US6001353A, “20α-alpha-hydroxy steroid dehydrogenase related material and methods” (priority 1997, dated 1999) can be followed below.

In this assay the test system is 20α-HSD mRNA. The assay can be described thus: Northern blot of corpus luteum 20α-HSD mRNA in hypophysectomized pregnant rats. It is filed as in vivo, rat. The settings on record: rats hypophysectomized day 3, 125 μg twice daily, tissue on day 7. The procedure:
For these studies, Holtzman pregnant rats were hypophysectomized on day 3 and treated with either prolactin (NIADDK oPRL-18, 125 μg, twice daily) or with vehicle (control). On day 7, corpus luteum and various other tissues (brain, decidua, ovary, and uterus) were obtained for analysis.
Total RNA from the harvested tissues was isolated by the method of Chomzynski and Sacchi [Anal. Biochem. 162:156-159 (1984)] and equal aliquots (20 μg) were electrophoresized and transferred to nylon membranes, or slot blotted onto Genescreen (DuPont, Wilmington, Del.) membrane. RNA was prehybridized for 16 hours at 42° C. in 40% formamide, 6×SSC, 5×Denhardt's, 20 mM NaH2 PO4, 0.2% SDS and 100 μg/ml salmon sperm DNA. Hybridization was completed in the same solution with the addition of ^32 P-labeled rat 20α-HSD cDNA (10^6 cpm/ml) at 42° C. for 12-16 hours. Blots were washed twice in 05.×SSC and 0.1% SDS (15 minutes, room temperature), twice in 0.2×SSC and 0.1% SDS (15 minutes, 42° C.), twice in 0.2×SSC and 0.1% SDS (15 minutes, 56° C.) and twice in 01.×SSC and 0.1% SDS (15 minutes, 56° C.).

B1: prolactin (protein, UniProt P01240 31-229, looked up)
Prolactin: TPVCPNGPGNCQVSLRDLFDRAVMVSHYIHNLSSEMFNEFDKRYAQGKGFITMALNSCHTSSLPTPEDKEQAQQTHHEVLMSLILGLLRSWNDPLYHLVTEVRGMKGVPDAILSRAIEIEEENKRLLEGMEMIFGQVIPGAKETEPYPVWSGLPSLQTKDEDARHSAFYNLLHCLRRDSSKIDTYLKLLNCRIIYNNNC
notes: prolactin (NIADDK oPRL-18)
As to B1, the “expression of 20α-HSD mRNA in corpora lutea” value is on record as “markedly reduced”.
